How the values were obtained:
protein kinase A = assay: cell-based or functional assay
[1] = test system: T1, Src-2 optical probe (GEEEIYGVIEK, SEQ. ID. NO: 29), non-phosphorylated
T1 sequence: GEEEIYGVIEK

[2] = test system: T2, Src-1 optical probe (GEEEIYGEIEK, SEQ. ID. NO: 3)
T2 sequence: GEEEIYGEIEK

[3] = test system: T3, phosphorylated Src-2-specific substrate optical probe (SEQ. ID. NO: 29)
T3 sequence: RRFHSRRRR

[4] = test system: T4, phosphorylated abl-specific substrate optical probe (SEQ. I.D. No. 4)
T4 sequence: AEAIYAAPLK

[5] = molecular target: T5, abl-specific substrate optical probe (AEAIYAAPL, SEQ. ID. NO: 4), non-phosphorylated
T5 chain: AEAIYAAPLK

Work on “PKI (substrate competitive inhibitor of protein kinase A) (peptide)” yielded a 460/530 Emission Ratio, Kinase + the inhibitor PKI (2.8 µM) (negative control 11.67, positive control 2.11) (460/530 emission ratio) (protein kinase A) of 11.7.

With Src kinase (Upstate Biotechnology) the “apparent Km (fluorescence measurements after protease incubation)” value [1] was 11 µM and 19 µM respectively and the “apparent Km (fluorescence measurements after protease incubation)” value [2] was 11 µM and 19 µM respectively.

In the case of “protein tyrosine phosphatase-B (PTP-B) agarose (Upstate Biotechnology)”, the “Kcat/Km (dephosphorylation)” value [3] is reported as “nearly 10^8 M^-1sec^-1”, the “apparent Km (Michaelis-Menten plot, dephosphorylation)” value [3] is reported as “the apparent Km for the Src-2optical probe is 1.3 µM” and the “kcat (dephosphorylation)” value [3] is reported as “the kcat is 79 sec^-1”. For the same molecule, the “relative rate of dephosphorylation” value [3] was “the Src-2 substrate is more readily de-phosphorylated than the abl substrate” and the “relative rate of dephosphorylation” value [4] was “the Src-2 substrate is more readily de-phosphorylated than the abl substrate”.

B1: Recombinant v-Abl kinase (protein)
chain: YITPVNSLEKHSWYHGPVSRNAAEYLLSSGINGSFLVRESESSPGQRSISLRYEGRVYHYRINTASDGKLYVSSESRFNTLAELVHHHSTVADGLITTLHYPAPKRNKPTIYGVSPNYDKWEMERTDITMKHKLGGGQYGEVYEGVWKKYSLTVAVKTLKEDTMEVEEFLKEAAVMKEIKHPNLVQLLGVCTREPPFYIITEFMTYGNLLDYLRECNRQEVSAVVLLYMATQISSAMEYLEKKNFIHRDLAARNCLVGENHLVKVADFGLSRLMTGDTYTAHAGAKFPIKWTAPESLAYNKFSIKSDVWAFGVLLWEIATYGMSPYPGIDLSQVYELLEKDYRMERPEGCPEKVYELMRACWQWNPSDRPSFAEIHQAFETMFQESSISDEVEKELGKRGTRG
With B1 the “apparent Km for the substrate (kinetics of phosphorylation, FRET/chymotrypsin read-out)” value [5] was “apparent Km for the substrate of 40 µM” and the “turnover (kcat) of the optical probe” value [5] was “The turnover of the optical probe by v-Abl was 9.5 sec^-1”.

Reference: patent publication US20030087328A1
